Patent publication US20130164214A1

Target: HLA-DR (human)
Test: cell-based or functional assay

B1: hL243γ4P (IMMU-114), humanized IgG4 anti-HLA-DR antibody (antibody, from a related filing, V domains shown)
VH: QVQLQQSGSELKKPGASVKVSCKASGFTFTNYGMNWVKQAPGQGLKWMGWINTYTREPTYADDFKGRFAFSLDTSVSTAYLQISSLKADDTAVYFCARDITAVVPTGFDYWGQGSLVTVSS
VL: DIQLTQSPSSLSASVGDRVTITCRASENIYSNLAWYRQKPGKAPKLLVFAASNLADGVPSRFSGSGSGTDYTFTISSLQPEDIATYYCQHFWTTPWAFGGGTKLQIKR
reduction of live mDC1 in human PBMCs after 3 days with antibody, flow cytometry: 59.2% | reduction of live mDC2 in human PBMCs after 3 days with antibody, flow cytometry: 85% | reduction of pDCs in human PBMCs, flow cytometry: 50%
